Experimental data as given in article PMC6057269, “A Flat BAR Protein Promotes Actin Polymerization at the Base of Clathrin-Coated Pits” (Cell, 2018).
Numbering of substitutions follows the chain as printed.

Tests used:
[1] = molecular target: the molecule itself; assay: cryo-EM structure; single particle cryo-EM of F2B1 at 0.15-0.3 mg/ml; C2 symmetry applied; 9.2 Å reconstruction
[2] = molecular target: T1, ITSN1 SH3d (aa1076-1138), recombinant (human, UniProt Q15811-1 1076-1138); assay: pull-down; GST-tagged SH3 domains on glutathione beads incubated with recombinant protein for 10 min at room temperature, 6 washes; Coomassie stained gel; details: both partners purified
T1 construct: Intersectin 1 long form (ITSN1L), human, fourth SH3 domain (SH3d), residues 1076-1138; The purification of this protein is not described; the tag was probably cleaved as for the FCHSD2 proteins (surmised); also called pOPINS-ITSN1-SH3d; source: E. coli, 6xHis-SUMO construct (pOPINS)
T1 sequence (looked up): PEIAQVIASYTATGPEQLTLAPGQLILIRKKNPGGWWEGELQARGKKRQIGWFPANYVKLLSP

[3] = molecular target: T1, ITSN1 SH3d (aa1076-1138), recombinant; assay: ITC; isothermal titration calorimetry of FCHSD2 SH3-2 and ITSN1 SH3d; conditions and direction of titration not told; details: both partners purified
[4] = molecular target: T2, GST-tagged ITSN1 SH3d (aa1076-1138) T1086A (human, UniProt Q15811-1 1076-1138, T1086A); assay: pull-down; GST-tagged SH3 domains on glutathione beads incubated with recombinant protein for 10 min at room temperature, 6 washes; Coomassie stained gel; details: both partners purified
T2 construct: Intersectin 1 long form (ITSN1L), human, SH3d, residues 1076-1138; also called crystal contact control mutant T1086; not shown: GST, N-terminal, kept
T2 sequence (looked up): T1 sequence (looked up) with T11A

[5] = molecular target: the molecule itself; assay: SEC-MALS; Superdex S-200 10/300, 150 mM NaCl, 20 mM HEPES pH 7.5, 500 μM TCEP; F2B12 at two concentrations

B1: FCHSD2 BAR + SH3-1 (F2B1: aa1-530) (domain or fragment, human, UniProt O94868-1 1-530, looked up)
chain: MQPPPRKVKVTQELKNIQVEQMTKLQAKHQAECDLLEDMRTFSQKKAAIEREYAQGMQKLASQYLKRDWPGVKADDRNDYRSMYPVWKSFLEGTMQVAQSRMNICENYKNFISEPARTVRSLKEQQLKRCVDQLTKIQTELQETVKDLAKGKKKYFETEQMAHAVREKADIEAKSKLSLFQSRISLQKASVKLKARRSECNSKATHARNDYLLTLAAANAHQDRYYQTDLVNIMKALDGNVYDHLKDYLIAFSRTELETCQAVQNTFQFLLENSSKVVRDYNLQLFLQENAVFHKPQPFQFQPCDSDTSRQLESETGTTEEHSLNKEARKWATRVAREHKNIVHQQRVLNDLECHGAAVSEQSRAELEQKIDEARENIRKAEIIKLKAEARLDLLKQIGVSVDTWLKSAMNQVMEELENERWARPPAVTSNGTLHSLNADTEREEGEEFEDNMDVFDDSSSSPSGTLRNYPLTCKVVYSYKASQPDELTIEEHEVLEVIEDGDMEDWVKARNKVGQVGYVPEKYLQFPTS
notes: FCHSD2, human, F-BAR + SH3-1, residues 1-530; also called FCHSD2 F-BAR+SH3-1; source: E. coli Rosetta (DE3), purified (HisTrap, anion exchange, Sumo protease, Superdex 200); not shown: His-SUMO, N-terminal, cleaved
- binding result [1]: binds

B2: GST-tagged FCHSD2 SH3-2 (aa568-629) N613A (domain or fragment, human, UniProt O94868-1 568-629, looked up)
chain: SVCFVKALYDYEGQTDDELSFPEGAIIRILNKENQDDDGFWEGEFAGRIGVFPSVLVEELSA
notes: FCHSD2, human, second SH3 domain, residues 568-629; also called crystal contact control mutant N613; not shown: GST, N-terminal, kept
- binding result [2]: binds

B3: GST-tagged FCHSD2 SH3-2 (aa568-629) D583A (domain or fragment, human, UniProt O94868-1 568-629, looked up)
chain: B2 chain with D16A, A46N
notes: FCHSD2, human, second SH3 domain, residues 568-629; also called crystal contact control mutant D583; not shown: GST, N-terminal, kept
- binding result [2]: binds

B4: FCHSD2 SH3-2 (aa568-629), recombinant (domain or fragment, human, UniProt O94868-1 568-629, looked up)
chain: B2 chain with A46N
notes: FCHSD2, human, second SH3 domain, residues 568-629; that the same preparation was the prey of the GST pull-downs and the ITC sample is surmised; also called pOPINS-FCHSD2 SH3-2; F2S2; source: E. coli Rosetta (DE3), purified (HisTrap, anion exchange, Sumo protease, Superdex 200); not shown: His-SUMO, N-terminal, cleaved
- Kd [3]: 248 nM
- stoichiometry N [3]: ~1
- binding result [4]: binds

B5: FCHSD2 BAR + SH3-1 + SH3-2 (F2B12: aa1-629) (domain or fragment, human, UniProt O94868-1 1-629, looked up)
chain: MQPPPRKVKVTQELKNIQVEQMTKLQAKHQAECDLLEDMRTFSQKKAAIEREYAQGMQKLASQYLKRDWPGVKADDRNDYRSMYPVWKSFLEGTMQVAQSRMNICENYKNFISEPARTVRSLKEQQLKRCVDQLTKIQTELQETVKDLAKGKKKYFETEQMAHAVREKADIEAKSKLSLFQSRISLQKASVKLKARRSECNSKATHARNDYLLTLAAANAHQDRYYQTDLVNIMKALDGNVYDHLKDYLIAFSRTELETCQAVQNTFQFLLENSSKVVRDYNLQLFLQENAVFHKPQPFQFQPCDSDTSRQLESETGTTEEHSLNKEARKWATRVAREHKNIVHQQRVLNDLECHGAAVSEQSRAELEQKIDEARENIRKAEIIKLKAEARLDLLKQIGVSVDTWLKSAMNQVMEELENERWARPPAVTSNGTLHSLNADTEREEGEEFEDNMDVFDDSSSSPSGTLRNYPLTCKVVYSYKASQPDELTIEEHEVLEVIEDGDMEDWVKARNKVGQVGYVPEKYLQFPTSNSLLSMLQSLAALDSRSHTSSNSTEAELVSGSLNGDASVCFVKALYDYEGQTDDELSFPEGAIIRILNKENQDDDGFWEGEFNGRIGVFPSVLVEELSA
notes: FCHSD2, human, F-BAR + SH3-1 + SH3-2, residues 1-629; also called FCHSD2 (F2B12 construct); source: E. coli Rosetta (DE3), purified (HisTrap, anion exchange, Sumo protease, Superdex 200); not shown: His-SUMO, N-terminal, cleaved
- stoichiometry N [5]: 2
